Measured values reported in patent US20110256153A1 (IMMUNOGEN, published 2011).

Assays:
macaque CD37 = molecular target: T1, macaque CD37 (macaque, UniProt P11049 1-277 (human entry)); experiment: flow cytometry, 300-19/CD37mac cells
T1 construct: Expressed on 300-19 cells transfected with pSRa-CD37mac (300-19/CD37mac cells); also called macaca CD37; macaque derived CD37 antigen
T1 chain: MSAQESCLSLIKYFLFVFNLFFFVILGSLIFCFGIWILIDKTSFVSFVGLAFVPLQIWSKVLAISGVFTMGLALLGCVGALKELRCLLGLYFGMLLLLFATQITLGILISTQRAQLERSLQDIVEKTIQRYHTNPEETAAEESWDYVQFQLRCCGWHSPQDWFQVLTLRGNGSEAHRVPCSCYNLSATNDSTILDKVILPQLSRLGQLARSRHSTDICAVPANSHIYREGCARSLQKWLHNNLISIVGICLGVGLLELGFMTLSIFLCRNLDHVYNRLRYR
In short: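 300-19 cells transfected with macaque CD37, alongside non-transfected 300-19 cells (1×10⁵ per sample), incubated 3 h with purified antibodies in RPMI-1640 with 2% normal goat serum. Bound antibody detected with FITC-conjugated anti-mouse or anti-human secondary for 1 h. Cells fixed in 1% formaldehyde before flow cytometry.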

human CD37 [1] = molecular target: T2, human CD37 (human, UniProt P11049 1-278); experiment: flow cytometry titration on BJAB cells; apparent Kd
T2 construct: Tetraspanin antigen; Expressed on 300-19 cells transfected with pSRa-CD37 (entire CDS) or endogenous on WSU-DLCL-2, BJAB and Ramos lymphoma cells; also called CD37 antigen; human CD37 wildtype
T2 sequence: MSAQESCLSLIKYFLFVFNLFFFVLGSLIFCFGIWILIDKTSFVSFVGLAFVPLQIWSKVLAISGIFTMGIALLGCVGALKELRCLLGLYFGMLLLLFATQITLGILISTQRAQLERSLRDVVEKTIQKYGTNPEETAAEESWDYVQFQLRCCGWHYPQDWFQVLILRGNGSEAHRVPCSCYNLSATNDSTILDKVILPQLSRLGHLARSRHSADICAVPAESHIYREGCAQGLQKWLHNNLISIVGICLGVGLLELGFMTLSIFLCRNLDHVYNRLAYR
In short: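 BJAB cells were incubated 3 h with titrated antibody in RPMI-1640 containing 2% goat serum, then 1 h with FITC anti-mouse or anti-human IgG, fixed in 1% formaldehyde and read by flow cytometry. Apparent Kd was derived by non-linear regression of the dose-response curves.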

human CD37 [2] = molecular target: T2, human CD37; experiment: flow cytometry titration on Ramos cells; apparent Kd
Description: Binding specificity was tested by flow cytometry using purified antibodies. […] All murine antibodies were incubated for 3 h with either CD37-expressing 300-19 cells or the non-transfected 300-19 cells (1×10⁵ cells per sample) in 100 μL FACS buffer (RPMI-1640 medium supplemented with 2% normal goat serum). Then, the cells were pelleted, washed, and incubated for 1 h with 100 μL of FITC-conjugated goat anti-mouse IgG-antibody (Jackson Laboratory, 6 μg/mL in FACS buffer). The cells were pelleted again, washed with FACS buffer and resuspended in 200 μL of PBS containing 1% formaldehyde. Samples were acquired using a FACSCalibur flow cytometer with the HTS multiwell sampler or a FACS array flow cytometer and analyzed using CellQuest Pro (all from BD Biosciences, San Diego, US).
The chimeric antibodies chCD37-3 and chCD37-12 were assayed for their binding affinity to Ramos cells in comparison to their murine counterparts. Flow cytometry binding assays using Ramos cells and muCD37-3, chCD37-3, muCD37-12 and chCD37-12 antibodies were carried out and analyzed as described in Example 2 using secondary FITC-conjugated goat-anti-murine and -anti-human antibodies. FIG. 9A depicts the dose-response curves generated by non-linear regression for each antibody. The value for the apparent dissociation constant (Kd) of each antibody was calculated using GraphPad Prism v4 (GraphPad software, San Diego, Calif.).

human CD37 [3] = molecular target: T2, human CD37; experiment: competition flow cytometry on BJAB cells; competitor PE-labeled muCD37-3 (1 nM)
Description: Flow cytometry binding assays using BJAB cells and a competitive binding format were used to evaluate binding affinity of chimeric and humanized versions of CD37-3. BJAB cells were incubated with a 1 nM concentration of PE-labeled muCD37-3 antibody and competition was measured by adding varying amounts of muCD37-3, chCD37-3, huCD37-3v1.0 or huCD37-3v1.01. The samples were incubated for 3 hrs at 4° C. Then, the cells were pelleted, washed with FACS buffer and resuspended in 200 μL of PBS containing 1% formaldehyde. Samples were acquired using a FACSCalibur flow cytometer with the HTS multiwell sampler and analyzed using CellQuest Pro (all from BD Biosciences, San Diego, US). The resulting mean PE fluorescence was plotted against the amount of competing antibody used in a semi-log plot. FIG. 9B depicts the dose-response curves generated by non-linear regression for each antibody. The value for the apparent dissociation constant (Kd) of each antibody was calculated using GraphPad Prism v4 (GraphPad software, San Diego, Calif.).

binding result (macaque CD37): no binding
Kd (human CD37 [1]): 200 pM
Kd (human CD37 [2]): 400 pM
EC50 (human CD37 [3]): 800 pM
B1: muCD37-3 (antibody, mouse IgG2a, kappa)
heavy: QVQVKESGPGLVAPSQSLSITCTVSGFSLTTSGVSWVRQPPGKGLEWLGVIWGDGSTNYHSALKSRLSIKKDHSKSQVFLKLNSLQTDDTATYYCAKGGYSLAHWGQGTLVTVSAAKTTAPSVYPLAPVCGDTTGSSVTLGCLVKGYFPEPVTLTWNSGSLSSGVHTFPAVLQSDLYTLSSSVTVTSSTWPSQSITCNVAHPASSTKVDKKIEPRGPTIKPCPPCKCPAPNLLGGPSVFIFPPKIKDVLMISLSPIVTCVVVDVSEDDPDVQISWFVNNVEVHTAQTQTHREDYNSTLRVVSALPIQHQDWMSGKEFKCKVNNKDLPAPIERTISKPKGSVRAPQVYVLPPPEEEMTKKQVTLTCMVTDFMPEDIYVEWTNNGKTELNYKNTEPVLDSDGSYFMYSKLRVEKKNWVERNSYSCSVVHEGLHNHHTTKSFSRTPGK
light: DIQMTQSPASLSVSVGETVTITCRASENIRSNLAWYQQKQGKSPQLLVNVATNLADGVPSRFSGSGSGTQYSLKINSLQSEDFGTYYCQHYWGTTWTFGGGTKLEIKRADAAPTVSIFPPSSEQLTSGGASVVCFLNNFYPKDINVKWKIDGSERQNGVLNSWTDQDSKDSTYSMSSTLTLTKDEYERHNSYTCEATHKTSTSPIVKSFNRNEC
notes: Murine hybridoma antibody; also called murine CD37-3 antibody; muCD37-3-PE
